# Values joined by “and” are separate entries in the source; they are usually repeats but may differ in a detail not shown here. Equal entries are not always repeated.
# Columns and labels:
# MCF7 cells = assay: Proliferation assay (Cell Titer-Glo) with anti-IGFR1 antibody and a chemotherapeutic agent, MCF7 cells; format: cell-based
# Protocol: (§1) The ability of cells in culture to proliferate when exposed to varying concentrations of the 19D12/15H12 wild-type or 19D12/15H12 LCF/HCA anti-IGFR1 antibody and either paclitaxel, gefitinib, lonafarnib 4-hydroxy tamoxifen or doxorubicin was evaluated in this example.
# (§2) Cell Preparation. […] The cells were trypsinized, counted and resuspended at a concentration of 25000 cells/ml in 10% HI-FBS (heat-inactivated fetal bovine serum) RPMI medium containing NEAA (non-essential amino acids), L-Glu, MEM Vitamins and PS. 100 ul of cell suspension (2500 cells) was added to each well of a BD Falcon 96 well black, clear bottom TC treated plate. The cells were allowed to attach and spread overnight at 37° C. The 10% RPMI solution was replaced with 100 μl RPMI containing 2% HI-FBS containing NEAA, L-Glu, MEM Vitamins and PS.
# (§3) Solution Preparation. All assay reagents were prepared in RPMI containing 2% HI-FBS at 20× concentration and serial diluted for a total of 10 test concentrations per treatment. Every test point was prepared in triplicate on separate assay plates.
# (§4) Reagent 1 and 19D12/15H12 or 19D12/15H12 LCF/HCA were set up individually as dose responses as well as in combination with each other. Cell proliferation was measured on Day4.
# (§5) Assay. Cell proliferation was measured using the Promega Cell Titer-Glo Luminescent Cell Viability Assay (Promega Corp.; Madison, Wis.). This assay provided a method for determining the number of viable cells in culture based on quantitation of ATP in the culture, which indicates the presence of metabolically active cells.
# (§6) The assay reagents and assay plates were equilibrated to room temperature and prepared immediately before addition to the assay plates. One volume of assay reagent was added to each well of the assay plate and shaken on an orbital platform for at least ten minutes to allow for equilibration of the ATP reaction and to ensure total lysis of all cells in the assay plate. […] Luminescence was detected on Wallac 420 Plate Reader with stacker.
# (§7) The units in the tables (proliferation index) are arbitrary and are proportional to the number of viable cells observed in the culture under each respective condition.
# (§8) In Tables 2-6, “ug” indicates micrograms and “uM” indicates micromolar.
# H322 NSCLC cells = assay: Proliferation assay (Cell Titer-Glo) with anti-IGFR1 antibody and a chemotherapeutic agent, H322 NSCLC cells; format: cell-based, human; conditions: H322, Day4, replicates
# Protocol: as §1, §2, §3, §4, §5, §6, §7, §8
molecule,measurement,setting,value
"CC/C(=C(\c1ccc(O)cc1)c1ccc(OCCN(C)C)cc1)c1ccccc1 [4-hydroxy tamoxifen, 4-hydroxytamoxifen, reference compound]",proliferation index,MCF7 cells; 4-hydroxy tamoxifen alone 20000 ng/mL,80 and 72 and 87 and 71 and 61 and 67 and 70 and 92
"COc1cc2ncnc(Nc3ccc(F)c(Cl)c3)c2cc1OCCCN1CCOCC1 [Iressa, 4-(3-chloro-4-fluoroanilino)-7-methoxy-6-(3-morpholinopropoxy)quinazoline]",proliferation index,H322 NSCLC cells; Iressa alone 0.0512 nM,59448 and 76032 and 61018 and 59690 and 63252 and 63688 and 60730 and 74464 and 65802
same,proliferation index,H322 NSCLC cells; Iressa alone 0.256 nM,56752 and 73246 and 58760 and 59474 and 57314 and 58384 and 59448 and 66806 and 64854
same,proliferation index,H322 NSCLC cells; Iressa alone 32 nM,45712 and 58272 and 41264 and 40992 and 44162 and 42054 and 43124 and 45062 and 41426
same,proliferation index,H322 NSCLC cells; Iressa alone 160 nM,35044 and 43832 and 32072 and 32728 and 33532 and 35078 and 34864 and 36144 and 34946
same,proliferation index,H322 NSCLC cells; Iressa alone 4000 nM,27738 and 27810 and 24546 and 24376 and 26742 and 28156 and 24528 and 28442 and 27026
same,proliferation index,H322 NSCLC cells; Iressa alone 20000 nM,10818 and 11294 and 10994 and 9734
"19D12/15H12 LCF/HCA: monoclonal, fully-human anti-IGFR1 antibody: mature light chain F (SEQ ID NO: 2) paired with mature heavy chain A (SEQ ID NO: 4) (antibody, listed as Homo sapiens, V domains shown) VH: MEFGLSWVFLVAILKGVQCEVQLVQSGGGLVKPGGSLRLSCAASGFTFSSFAMHWVRQAPGKGLEWISVIDTRGATYYADSVKGRFTISRDNAKNSLYLQMNSLRAEDTAVYYCARLGNFYYGMDVWGQGTTVTVSS VL: MSPSQLIGFLLLWVPASRGEIVLTQSPGTLSVSPGERATLSCRASQSIGSSLHWYQQKPGQAPRLLIKYASQSLSGIPDRFSGSGSGTDFTLTISRLEPEDFAVYYCHQSSRLPHTFGQGTKVEIKRT",proliferation index,H322 NSCLC cells; antibody alone 0.000256 nM (Table 2 plates),73420 and 74154 and 83338 and 74108 and 84234 and 83206 and 80894 and 82674 and 71784
same,proliferation index,H322 NSCLC cells; antibody alone 0.0064 nM (Table 2 plates),61654 and 79014 and 72998 and 69060 and 64818 and 74862 and 76374 and 68206 and 70226
same,proliferation index,H322 NSCLC cells; antibody alone 0.8 nM (Table 2 plates),40944 and 47470 and 52010 and 49636 and 55228 and 53706 and 56984 and 49396 and 47080
same,proliferation index,H322 NSCLC cells; antibody alone 0.8 nM (Table 3 plates),49206
same,proliferation index,H322 NSCLC cells; antibody alone 4 nM (Table 2 plates),42312 and 48884 and 49992 and 50508 and 47256 and 56998 and 54966 and 51438 and 44700
same,proliferation index,H322 NSCLC cells; antibody alone 20 nM (Table 2 plates),44120 and 55106 and 50680 and 49038 and 56114 and 52446 and 51826 and 52490 and 48302
same,proliferation index,H322 NSCLC cells; antibody alone 20 nM (Table 3 plates),51960 and 58598 and 48444 and 49156 and 51020 and 48730 and 49684 and 45064 and 52120
same,proliferation index,H322 NSCLC cells; antibody alone 5.12E−05 nM (Table 2 plates),74408 and 87030 and 83636 and 79810 and 79650 and 90294 and 88940 and 86762 and 74996
"19D12/15H12: 19D12/15H12 wild-type anti-IGFR1 antibody (antibody, listed as Homo sapiens, V domains shown) VL: MSPSQLIGFLLLWVPASRGEIVLTQSPGTLSVSPGERATLSCRASQSIGSSLHWYQQKPGQAPRLLIKYASQSLSGIPDRFSGSGSGTDFTLTISRLEPEDFAVYYCHQSSRLPHTFGQGTKVEIKRT VH: MEFGLSWVFLVAILKGVQCEVQLVQSGGGLVKPGGSLRLSCAASGFTFSSFAMHWVRQAPGKGLEWISVIDTRGATYYADSVKGRFTISRDNAKNSLYLQMNSLRAEDTAVYYCARLGNFYYGMDVWGQGTTVTVSS",Proliferation of MCF7 cells,MCF7 cells; 19D12/15H12 0.00001024 nM + doxorubicin 0.00001024 ug/mL,101144
same,Proliferation of MCF7 cells,MCF7 cells; 19D12/15H12 0.00001024 nM + doxorubicin 0.0000512 ug/mL,102670
same,Proliferation of MCF7 cells,MCF7 cells; 19D12/15H12 0.00001024 nM + doxorubicin 0.000256 ug/mL,100293
same,Proliferation of MCF7 cells,MCF7 cells; 19D12/15H12 0.00001024 nM + doxorubicin 0.0064 ug/mL,95276
same,Proliferation of MCF7 cells,MCF7 cells; 19D12/15H12 0.00001024 nM + doxorubicin 0.8 ug/mL,5132
same,Proliferation of MCF7 cells,MCF7 cells; 19D12/15H12 0.00001024 nM + doxorubicin 4 ug/mL,12606
same,Proliferation of MCF7 cells,MCF7 cells; 19D12/15H12 0.00001024 nM + doxorubicin 20 ug/mL,7789
same,Proliferation of MCF7 cells,MCF7 cells; 19D12/15H12 0.0000512 nM + doxorubicin 0.00001024 ug/mL,111388
same,Proliferation of MCF7 cells,MCF7 cells; 19D12/15H12 0.0000512 nM + doxorubicin 0.0000512 ug/mL,106322
same,Proliferation of MCF7 cells,MCF7 cells; 19D12/15H12 0.0000512 nM + doxorubicin 0.000256 ug/mL,107406
same,Proliferation of MCF7 cells,MCF7 cells; 19D12/15H12 0.0000512 nM + doxorubicin 0.0064 ug/mL,93794
same,Proliferation of MCF7 cells,MCF7 cells; 19D12/15H12 0.0000512 nM + doxorubicin 0.8 ug/mL,5649
same,Proliferation of MCF7 cells,MCF7 cells; 19D12/15H12 0.0000512 nM + doxorubicin 4 ug/mL,11124
same,Proliferation of MCF7 cells,MCF7 cells; 19D12/15H12 0.0000512 nM + doxorubicin 20 ug/mL,6793
same,Proliferation of MCF7 cells,MCF7 cells; 19D12/15H12 0.000256 nM + doxorubicin 0.00001024 ug/mL,86861
same,Proliferation of MCF7 cells,MCF7 cells; 19D12/15H12 0.000256 nM + doxorubicin 0.0000512 ug/mL,76193
same,Proliferation of MCF7 cells,MCF7 cells; 19D12/15H12 0.000256 nM + doxorubicin 0.000256 ug/mL,74312
same,Proliferation of MCF7 cells,MCF7 cells; 19D12/15H12 0.000256 nM + doxorubicin 0.0064 ug/mL,70725
same,Proliferation of MCF7 cells,MCF7 cells; 19D12/15H12 0.000256 nM + doxorubicin 0.8 ug/mL,5698
same,Proliferation of MCF7 cells,MCF7 cells; 19D12/15H12 0.000256 nM + doxorubicin 4 ug/mL,13174
same,Proliferation of MCF7 cells,MCF7 cells; 19D12/15H12 0.000256 nM + doxorubicin 20 ug/mL,6667
same,Proliferation of MCF7 cells,MCF7 cells; 19D12/15H12 0.0064 nM + doxorubicin 0.00001024 ug/mL,60936
same,Proliferation of MCF7 cells,MCF7 cells; 19D12/15H12 0.0064 nM + doxorubicin 0.0000512 ug/mL,60524
same,Proliferation of MCF7 cells,MCF7 cells; 19D12/15H12 0.0064 nM + doxorubicin 0.000256 ug/mL,61820
same,Proliferation of MCF7 cells,MCF7 cells; 19D12/15H12 0.0064 nM + doxorubicin 0.0064 ug/mL,53583
same,Proliferation of MCF7 cells,MCF7 cells; 19D12/15H12 0.0064 nM + doxorubicin 0.8 ug/mL,4702
same,Proliferation of MCF7 cells,MCF7 cells; 19D12/15H12 0.0064 nM + doxorubicin 4 ug/mL,10648
same,Proliferation of MCF7 cells,MCF7 cells; 19D12/15H12 0.0064 nM + doxorubicin 20 ug/mL,7057
same,Proliferation of MCF7 cells,MCF7 cells; 19D12/15H12 0.8 nM + doxorubicin 0.00001024 ug/mL,70307
same,Proliferation of MCF7 cells,MCF7 cells; 19D12/15H12 0.8 nM + doxorubicin 0.0000512 ug/mL,64429
same,Proliferation of MCF7 cells,MCF7 cells; 19D12/15H12 0.8 nM + doxorubicin 0.000256 ug/mL,60055
same,Proliferation of MCF7 cells,MCF7 cells; 19D12/15H12 0.8 nM + doxorubicin 0.0064 ug/mL,56538
same,Proliferation of MCF7 cells,MCF7 cells; 19D12/15H12 0.8 nM + doxorubicin 0.8 ug/mL,4916
same,Proliferation of MCF7 cells,MCF7 cells; 19D12/15H12 0.8 nM + doxorubicin 4 ug/mL,11778
same,Proliferation of MCF7 cells,MCF7 cells; 19D12/15H12 0.8 nM + doxorubicin 20 ug/mL,7693
same,Proliferation of MCF7 cells,MCF7 cells; 19D12/15H12 4 nM + doxorubicin 0.00001024 ug/mL,61992
same,Proliferation of MCF7 cells,MCF7 cells; 19D12/15H12 4 nM + doxorubicin 0.0000512 ug/mL,57611
same,Proliferation of MCF7 cells,MCF7 cells; 19D12/15H12 4 nM + doxorubicin 0.000256 ug/mL,58980
same,Proliferation of MCF7 cells,MCF7 cells; 19D12/15H12 4 nM + doxorubicin 0.0064 ug/mL,53567
same,Proliferation of MCF7 cells,MCF7 cells; 19D12/15H12 4 nM + doxorubicin 0.8 ug/mL,4259
same,Proliferation of MCF7 cells,MCF7 cells; 19D12/15H12 4 nM + doxorubicin 4 ug/mL,12760
same,Proliferation of MCF7 cells,MCF7 cells; 19D12/15H12 4 nM + doxorubicin 20 ug/mL,8097
same,Proliferation of MCF7 cells,MCF7 cells; 19D12/15H12 20 nM + doxorubicin 0.00001024 ug/mL,59288
same,Proliferation of MCF7 cells,MCF7 cells; 19D12/15H12 20 nM + doxorubicin 0.0000512 ug/mL,60307
same,Proliferation of MCF7 cells,MCF7 cells; 19D12/15H12 20 nM + doxorubicin 0.000256 ug/mL,62242
same,Proliferation of MCF7 cells,MCF7 cells; 19D12/15H12 20 nM + doxorubicin 0.0064 ug/mL,54983
same,Proliferation of MCF7 cells,MCF7 cells; 19D12/15H12 20 nM + doxorubicin 0.8 ug/mL,5202
same,Proliferation of MCF7 cells,MCF7 cells; 19D12/15H12 20 nM + doxorubicin 4 ug/mL,10465
same,Proliferation of MCF7 cells,MCF7 cells; 19D12/15H12 20 nM + doxorubicin 20 ug/mL,7489

# — patent US8017735B2, “Anti-IGFR1 antibody therapeutic combinations” (Schering Corporation, priority 2003, dated 2011)
